Source: patent US20190382484A1 (Chugai, published 2019)

Experiments:
[1] = biological target: the molecule itself; test: size exclusion chromatography (G3000SWXL), absorbance 280 nm; self-association of the half molecule [panel b]
Protocol: The protein concentration of the antibody-half molecules was 0.25 mg/mL, and 80 μL was injected.
Evaluation of the molecular weight of the prepared antibody-half molecules A and B was carried out by size exclusion chromatography.

[2] = biological target: T1, FcγRIIIa extracellular domain (UniProt P08637 17-208, limits assumed); test: SPR (Biacore T200), mixed half molecules captured via biotinylated antigen peptide on CAP chip, FcγR as analyte, 25 C
T1 construct: extracellular domain; Purified over HisTrap, so a His tag is implied
T1 sequence (P08637 17-208 limits assumed): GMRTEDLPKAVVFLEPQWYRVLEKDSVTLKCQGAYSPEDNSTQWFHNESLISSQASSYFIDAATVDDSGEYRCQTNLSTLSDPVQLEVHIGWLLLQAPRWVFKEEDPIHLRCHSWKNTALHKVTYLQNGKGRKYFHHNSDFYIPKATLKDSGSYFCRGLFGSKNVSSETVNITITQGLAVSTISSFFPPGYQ
Protocol: Interaction analysis of antibody-half molecules of interest and FcγR was performed using Biacore (registered trademark) T200. Biotin CAPture Kit, Series S (GE Healthcare) was used for the measurement, and HBS-EP+10X (GE Healthcare) diluted 1/10th was used as a running buffer. The measurement temperature was 25° C. For the sensor chip, Series S Sensor Chip CAP (GE Healthcare) onto which previously-biotinylated antigen peptides were allowed to interact and thereby immobilized was used. These chips were allowed to capture the antibody-half molecules of interest and then interact with FcγR diluted with the running buffer. The antigens and antibody-half molecules captured on the chip were washed as described in the instructions attached to the kit, and the chips were regenerated and reused.

[3] = biological target: antibody-half molecule A2 with PF1H / PF1L-k0 (PF1H-DA402v2/PF1L-k0); test: SPR (Biacore T200), about 50 RU of half molecule A captured via biotinylated antigen peptide, half molecule B as analyte at 2.5 mg/mL, 25 C
Protocol: (§1) The interaction between the obtained antibody-half molecules was analyzed using Biacore (registered trademark) T200. Biotin CAPture Kit, Series S (GE Healthcare) was used for the measurement, and HBS-EP+10X (GE Healthcare) diluted 1/10th was used as a running buffer. The measurement temperature was 25° C. For the sensor chip, Series S Sensor Chip CAP (GE Healthcare) onto which previously-biotinylated antigen peptides were allowed to interact and thereby immobilized was used. These chips were allowed to capture approximately 50 RU of the antibody-half molecule A of interest and then interact with the antibody-half molecule B of interest diluted with the running buffer at 2.5 mg/mL for 180 seconds at a flow rate of 30 μL/min, and measurement was carried out. The molar binding ratio was calculated based on the following Formula 2. The antibody-half molecule A captured on the chip was washed as described in the instructions attached to the kit, and the chip was regenerated and reused.
(§2) At this time, for the antibody-half molecules to be captured, PF1H (SEQ ID NO: 22), which is the H chain variable region portion of the anti-human IL6 receptor antibody described in WO 2009/041621, was used as the H chain variable region portion, PF1L (SEQ ID NO: 23), which is the L chain variable region portion of the anti-human IL6 receptor antibody described in WO 2009/041621, was used as the L chain variable region portion, and k0 was used as the L chain constant region portion. In addition, for the antibody-half molecules used as analytes, IC17H (SEQ ID NO: 24), which is the anti-KLH antibody described in WO 2015/174439, was used as the H chain variable region, IC17L (SEQ ID NO: 25), which is the anti-KLH antibody described in WO 2015/174439, was used as the L chain variable region, and k0 was used as the L chain constant region.

[4] = biological target: antibody-half molecule A3 with PF1H / PF1L-k0 (PF1H-DA405v2/PF1L-k0); test: as above
Protocol: as §1, §2

[5] = biological target: antibody-half molecule A4 with PF1H / PF1L-k0 (PF1H-DA424v2/PF1L-k0); test: as above
Protocol: as §1, §2

B1: EGLVH-wtIgG4C4/EGLVL-k0 (antibody, V domains shown)
VH: QDQLVQSGAEVKKPGASVKVSCKASGFNIKDTYIQWVRQAPGQGLEWMGRIDPLRKQTKYREKFEGRVTITADTSTNTAYMELSSLRSEDTAVYYCVRSGREFDYWGQGTLVTVSS
VL: DIQMTQSPSSLSASVGDRVTITCRASQDIHKYIAWYQQKPGQAPRLLIQYTSTLQPGVPSRFSGSGSGTDYTFTISSLQPEDIATYYCLQYEQLRTFGGGTKVEIKR
notes: also called control of the half molecule state of antibody
binding result [1]: no binding (tested: 0.25 mg/mL injected)

B2: MRAH-DA424v2/MRAL-k0 + MRAH-DB424v2/MRAL-k0 (antibody, human IgG1, kappa)
heavy 1: QVQLQESGPGLVRPSQTLSLTCTVSGYSITSDHAWSWVRQPPGRGLEWIGYISYSGITTYNPSLKSRVTMLRDTSKNQFSLRLSSVTAADTAVYYCARSLARTTAMDYWGQGSLVTVSSASTKGPSVFPLAPSSKSTSGGTAALGCLVKDYFPEPVTVSWNSGALTSGVHTFPAVLQSSGLYSLSSVVTVPSSSLGTQTYICNVNHKPSNTKVDKKVEPKSCDKTHTSPPSPAPEYQWGPMVFLFPPKPKDTLMISRTPEVTCVVVDVSDEEPEVKFNWYVDGVEVHNAKTKPREEQYNATYRVVSVLTVLHQDWLNGKEYKCKVSNKALPAPIEKTISKAKGQPREPQVYTLPPSRKNLTKNQVSLTCLVKGFYPSDIAVEWESNGQPENNYKTTPPYLDSDGSFFLYSDLTVDKSRWQQGNVFSCSVMHEALHNHYTQKSLSLSP
heavy 2: QVQLQESGPGLVRPSQTLSLTCTVSGYSITSDHAWSWVRQPPGRGLEWIGYISYSGITTYNPSLKSRVTMLRDTSKNQFSLRLSSVTAADTAVYYCARSLARTTAMDYWGQGSLVTVSSASTKGPSVFPLAPSSKSTSGGTAALGCLVKDYFPEPVTVSWNSGALTSGVHTFPAVLQSSGLYSLSSVVTVPSSSLGTQTYICNVNHKPSNTKVDKKVEPKSCDKTHTSPPSPAPELLGGPSVFLFPPKPKDTLMISRTPEVTCVVVDVSHEEPEVKFNWYVDGVEVHNAKTKPREEQYNSTYRVVSVLTVLHQDWLNGKEYKCKVSNDALPMPIEETISKAKGQPREPQVYTLPPSRDNLTKNQVSLTCLVKGFYPSDIAVEWESNGQPENNYKTTPPYLDSDGSFFLYSDLTVDKSRWQQGNVFSCSVMHEALHNHYTQESLSLSP
light: not shown
notes: Mixture of the two antibody-half molecules, which form a non-covalent heterodimer when captured on antigen; also called A4 + B4
Kd [2]: 10 nM

B3: MRAH-DA430v2/MRAL-k0 + MRAH-DB430v2/MRAL-k0 (antibody, human IgG1, kappa)
heavy 1: QVQLQESGPGLVRPSQTLSLTCTVSGYSITSDHAWSWVRQPPGRGLEWIGYISYSGITTYNPSLKSRVTMLRDTSKNQFSLRLSSVTAADTAVYYCARSLARTTAMDYWGQGSLVTVSSASTKGPSVFPLAPSSKSTSGGTAALGCLVKDYFPEPVTVSWNSGALTSGVHTFPAVLQSSGLYSLSSVVTVPSSSLGTQTYICNVNHKPSNTKVDKKVEPKSCDKTHTSPPSPAPEYQWGPMVFLFPPKPKDTLMISRTPEVTCVVVDVSDEEPEVKFNWYVDGVEVHNAKTKPREEQYNATYRVVSVLTVLHQDWLNGKEYKCKVSNKALPAPIEKTISKAKGQPREPQVYTLPPSRKLLTKNQVSLTCLVKGFYPSDIAVEWESNGQPENNYKTTPPYLDSDGSFFLYSDLTVDKSRWQQGNVFSCSVMHEALHNHYTQKSLSLSP
heavy 2: QVQLQESGPGLVRPSQTLSLTCTVSGYSITSDHAWSWVRQPPGRGLEWIGYISYSGITTYNPSLKSRVTMLRDTSKNQFSLRLSSVTAADTAVYYCARSLARTTAMDYWGQGSLVTVSSASTKGPSVFPLAPSSKSTSGGTAALGCLVKDYFPEPVTVSWNSGALTSGVHTFPAVLQSSGLYSLSSVVTVPSSSLGTQTYICNVNHKPSNTKVDKKVEPKSCDKTHTSPPSPAPELLGGPSVFLFPPKPKDTLMISRTPEVTCVVVDVSHEEPEVKFNWYVDGVEVHNAKTKPREEQYNSTYRVVSVLTVLHQDWLNGKEYKCKVSNDALPMPIEETISKAKGQPREPQVYTLPPSRDLLTKNQVSLTCLVKGFYPSDIAVEWESNGQPENNYKTTPPYLDSDGSFFLYSDLTVDKSRWQQGNVFSCSVMHEALHNHYTQESLSLSP
light: not shown
notes: Mixture of the two antibody-half molecules, which form a non-covalent heterodimer when captured on antigen; also called A5 + B5
Kd [2]: 53 nM

B4: antibody-half molecule B2 with IC17H / IC17L-k0 (IC17H-DB402v2/IC17L-k0) (antibody, human IgG1, kappa)
heavy: QVQLQQSGPQLVRPGASVKISCKASGYSFTSYWMHWVNQRPGQGLEWIGMIDPSYSETRLNQKFKDKATLTVDKSSSTAYMQLSSPTSEDSAVYYCALYGNYFDYWGQGTTLTVSSASTKGPSVFPLAPSSKSTSGGTAALGCLVKDYFPEPVTVSWNSGALTSGVHTFPAVLQSSGLYSLSSVVTVPSSSLGTQTYICNVNHKPSNTKVDKKVEPKSCDKTHTSPPSPAPELLGGPSVFLFPPKPKDTLMISRTPEVTCVVVDVSHEEPEVKFNWYVDGVEVHNAKTKPREEQYNSTYRVVSVLTVLHQDWLNGKEYKCKVSNDALPMPIEETISKAKGQPREPQVYTLPPSRDELTKNQVSLTCLVKGFYPSDIAVEWESNGQPENNYKTTPPYLDSDGSFFLYSHLTVDKSRWQQGNVFSCSVMHEALHNHYTQESLSLSP
light: DIQMTQSSSSFSVSLGDRVTITCKASEDIYNRLAWYQQKPGNAPRLLISGATSLETGVPSRFSGSGSGKDYTLSITSLQTEDVATYYCQQYWSTPYTFGGGTKLEVKRTVAAPSVFIFPPSDEQLKSGTASVVCLLNNFYPREAKVQWKVDNALQSGNSQESVTEQDSKDSTYSLSSTLTLSKADYEKHKVYACEVTHQGLSSPVTKSFNRGEC
molar binding ratio [3]: 0.63

B5: antibody-half molecule B3 with IC17H / IC17L-k0 (IC17H-DB405v2/IC17L-k0) (antibody, human IgG1, kappa)
heavy: QVQLQQSGPQLVRPGASVKISCKASGYSFTSYWMHWVNQRPGQGLEWIGMIDPSYSETRLNQKFKDKATLTVDKSSSTAYMQLSSPTSEDSAVYYCALYGNYFDYWGQGTTLTVSSASTKGPSVFPLAPSSKSTSGGTAALGCLVKDYFPEPVTVSWNSGALTSGVHTFPAVLQSSGLYSLSSVVTVPSSSLGTQTYICNVNHKPSNTKVDKKVEPKSCDKTHTSPPSPAPELLGGPSVFLFPPKPKDTLMISRTPEVTCVVVDVSHEEPEVKFNWYVDGVEVHNAKTKPREEQYNSTYRVVSVLTVLHQDWLNGKEYKCKVSNDALPMPIEETISKAKGQPREPQVYTLPPSRDELTKNQVSLTCLVKGFYPSDIAVEWESNGQPENNYKTTPPYLDSDGSFFLYSTLTVDKSRWQQGNVFSCSVMHEALHNHYTQESLSLSP
light: DIQMTQSSSSFSVSLGDRVTITCKASEDIYNRLAWYQQKPGNAPRLLISGATSLETGVPSRFSGSGSGKDYTLSITSLQTEDVATYYCQQYWSTPYTFGGGTKLEVKRTVAAPSVFIFPPSDEQLKSGTASVVCLLNNFYPREAKVQWKVDNALQSGNSQESVTEQDSKDSTYSLSSTLTLSKADYEKHKVYACEVTHQGLSSPVTKSFNRGEC
molar binding ratio [4]: 0.54

B6: antibody-half molecule B4 with IC17H / IC17L-k0 (IC17H-DB424v2/IC17L-k0) (antibody, human IgG1, kappa)
heavy: QVQLQQSGPQLVRPGASVKISCKASGYSFTSYWMHWVNQRPGQGLEWIGMIDPSYSETRLNQKFKDKATLTVDKSSSTAYMQLSSPTSEDSAVYYCALYGNYFDYWGQGTTLTVSSASTKGPSVFPLAPSSKSTSGGTAALGCLVKDYFPEPVTVSWNSGALTSGVHTFPAVLQSSGLYSLSSVVTVPSSSLGTQTYICNVNHKPSNTKVDKKVEPKSCDKTHTSPPSPAPELLGGPSVFLFPPKPKDTLMISRTPEVTCVVVDVSHEEPEVKFNWYVDGVEVHNAKTKPREEQYNSTYRVVSVLTVLHQDWLNGKEYKCKVSNDALPMPIEETISKAKGQPREPQVYTLPPSRDNLTKNQVSLTCLVKGFYPSDIAVEWESNGQPENNYKTTPPYLDSDGSFFLYSDLTVDKSRWQQGNVFSCSVMHEALHNHYTQESLSLSP
light: DIQMTQSSSSFSVSLGDRVTITCKASEDIYNRLAWYQQKPGNAPRLLISGATSLETGVPSRFSGSGSGKDYTLSITSLQTEDVATYYCQQYWSTPYTFGGGTKLEVKRTVAAPSVFIFPPSDEQLKSGTASVVCLLNNFYPREAKVQWKVDNALQSGNSQESVTEQDSKDSTYSLSSTLTLSKADYEKHKVYACEVTHQGLSSPVTKSFNRGEC
molar binding ratio [5]: 0.25
